Test results taken from US20220281976A1 (Alector, published 2022).

B1: C-75 (antibody, V domains shown)
VH: EVQLLESGGGLVQPGGSLRLSCAASGFTFSSYAMSWVRQAPGKGLEWVSAISASGGSTYYADSVKGRFTISRDNSKNTLYLQMNSLRAEDTAVYYCARLHMTGTASSGMDVWGQGTTVTVSS
VL: DIVMTQSPDSLAVSLGERATINCKSSQSVLYSSNNKNYLAWYQQKPGQAPRLLIYGASSRATGIPDRFSGSGSGTDFTLTISRLEPEDFAVYYCQQDYSSPLTFGGGTKVEIK
notes: human IgG1
B2: C-77 (antibody, V domains shown)
VH: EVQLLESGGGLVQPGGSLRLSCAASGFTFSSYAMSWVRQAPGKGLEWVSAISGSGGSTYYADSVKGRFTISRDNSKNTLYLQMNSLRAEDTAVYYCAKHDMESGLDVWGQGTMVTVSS
VL: DIVLTQSPDSLAVSLGERATINCKSSQSVLYSSNNKNYLAWYQQKPGQAPRLLIYGASSRATGIPDRFSGSGSGTDFTLTISRLEPEDFAVYYCQQDYVSPLTFGGGTKVEIK
notes: human IgG1
B3: C-76 (antibody, V domains shown)
VH: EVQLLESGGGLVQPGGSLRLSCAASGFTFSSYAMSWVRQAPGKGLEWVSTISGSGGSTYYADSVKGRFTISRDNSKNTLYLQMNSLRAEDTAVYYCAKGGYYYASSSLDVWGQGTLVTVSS
VL: DIVMTQSPDSLAVSLGERATINCKSSQSVLYSSNNKNYLAWYQQKPGQAPRLLIYGASSRATGIPDRFSGSGSGTDFTLTISRLEPEDFAVYYCQQDYNSPLTFGGGTKVEIK
notes: human IgG1
B4: C-79 (antibody, V domains shown)
VH: QVQLVQSGAEVKKPGASVKVSCKASGYTFTSYYIHWVRQAPGQGLEWMGIINPSGGSTSYAQKFQGRVTMTRDTSTSTVYMELSSLRSEDTAVYYCARVSRQQHSMDVWGQGTTVTVSS
VL: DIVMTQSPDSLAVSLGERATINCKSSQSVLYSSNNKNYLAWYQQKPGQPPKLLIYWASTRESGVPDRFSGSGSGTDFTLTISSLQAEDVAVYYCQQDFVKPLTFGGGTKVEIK
notes: human IgG1
B5: C-69 (antibody, V domains shown)
VH: EVQLVESGGGLVQPGGSLRLSCAASGFTFSSYWMSWVRQAPGKGLEWVANIKSDGSEKYYVDSVKGRFTISRDNAKNSLYLQMNSLRAEDTAVYYCARAETYQLSSAFDIWGQGTMVTVSS
VL: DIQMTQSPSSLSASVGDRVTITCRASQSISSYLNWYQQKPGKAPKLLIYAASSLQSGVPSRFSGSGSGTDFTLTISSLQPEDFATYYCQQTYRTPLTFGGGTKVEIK
notes: human IgG1
B6: C-84 (antibody, V domains shown)
VH: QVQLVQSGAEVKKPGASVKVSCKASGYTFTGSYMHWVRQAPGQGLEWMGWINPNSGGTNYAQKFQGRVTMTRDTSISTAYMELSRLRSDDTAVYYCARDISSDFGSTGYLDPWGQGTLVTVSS
VL: DIQMTQSPSTLSASVGDRVTITCRASQSISSWLAWYQQKPGKAPKLLIYDASSLESGVPSRFSGSGSGTEFTLTISSLQPDDFATYYCQQVNRYPFTFGGGTKVEIK
notes: human IgG1
B7: C-72 (antibody, V domains shown)
VH: QVQLVESGGGVVQPGRSLRLSCAASGFTFSSYGMHWVRQAPGKGLEWVAVIWYDGSNKYYADSVKGRFTISRDNSKNTLYLQMNSLRAEDTAVYYCAKEGGTYSDDFDLWGGGTLVTVSS
VL: DIQMTQSPSSVSASVGDRVTITCRASQGISSWLAWYQQKPGKAPKLLIYAASSLQSGVPSRFSGSGSGTDFTLTISSLQPEDFATYYCQQASSFPLTFGGGTKVEIK
notes: human IgG1
B8: C-7 (antibody, V domains shown)
VH: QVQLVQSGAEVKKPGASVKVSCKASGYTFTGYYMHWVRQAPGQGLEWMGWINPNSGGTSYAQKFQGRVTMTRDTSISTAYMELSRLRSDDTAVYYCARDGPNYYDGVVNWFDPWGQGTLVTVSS
VL: DIQMTQSPSTLSASVGDRVTITCRASQSISSWLAWYQQKPGKAPKLLIYDASSLESGVPSRFSGSGSGTEFTLTISSLQPDDFATYYCQQARSYPPTFGGGTKVEIK
notes: human IgG1
B9: C-87 (antibody, V domains shown)
VH: QLQLQESGPGLVKPSETLSLTCTVSGGSISSSSYAWGWIRQPPGKGLEWIGSIYYSGSTYYNPSLKSRVTISVDTSKNQFSLKLSSVTAADTAVYYCARDPLYPLTPYGMDVWGQGTTVTVSS
VL: EIVMTQSPATLSLSPGERATLSCRASQSVSSYLAWYQQKPGQAPRLLIYDASNRATGIPARFSGSGSGTDFTLTISSLEPEDFAVYYCQQLSVFPPTFGGGTKVEIK
notes: human IgG1
B10: C-68 (antibody, V domains shown)
VH: QVQLQESGPGLVKPSQTLSLTCTVSGGSISSGGYYWSWIRQHPGKGLEWIGNIYYSGSTYYNPSLKSRVTISVDTSKNQFSLKLSSVTAADTAVYYCARDLPNSGSPGSDYFDYWGQGTLVTVSS
VL: EIVLTQSPGTLSLSPGERATLSCRASQSVSSSYLAWYQQKPGQAPRLLIYGASSRATGIPDRFSGSGSGTDFTLTISRLEPEDFAVYYCQQYDNYPPTFGGGTKVEIK
notes: human IgG1

Tests used:
[1] = target: T1, human CD33 Fc fusion protein (human, UniProt P20138 18-259); test: RBC adhesion to plate-bound CD33-Fc; antibody 1.0 ug/ml;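 further: red blood cells adhering to plate-coated CD33-Fc after 1 h antibody pretreatment, then 1 h at room temperature, bound cells read as peroxidase activity after lysis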
T1 construct: also called hCD33-Fc; human CD33/Fc chimera (R&D Systems)
Protocol: Briefly, 5 ug/ml CD33-Fc was coated overnight at RT in 96 well Immunolon plates, then washed with PBS, blocked for one hour with binding buffer (PBS containing %0.25 BSA 1 mM CaCl₂). CD33 antibodies (0.5 ug/ml or 1.0 ug/ml) or Fabs (25 ug/ml) were bound for one hour at RT with gentle rocking. After removal of unbound antibody, red blood cells were added to each well at a concentration of 3.0×10⁶ cells per ml and incubated at RT for one hour. Unbound RBCs were then carefully washed off 3× with PBS, and water was added to each well for hypotonic lysis of bound RBCs. The plate was transferred to −80° C. for 10 minutes, followed by 37° C. for 15 minutes. Bound RBCs were detected by peroxidase activity, followed by 2N sulfuric acid to stop the reaction.

human CD33 [2] = target: T2, human CD33 (human, UniProt P20138 18-364); test: flow cytometry, human primary monocytes; parameters: reference not given here;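 further: binding of anti-CD33 antibodies at 10 ug/ml to human primary monocytes, 1 h on ice, detected by PE-labelled secondary antibody, flow cytometry readout as mean fluorescence intensity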
T2 construct: CD33 on human primary dendritic cells, macrophages, monocytes and T cells and on CHO cells expressing recombinant human CD33; also called Siglec-3; hCD33

[3] = target: T3, human monomeric His tagged CD33 protein (human, UniProt P20138 18-259); test: ForteBio BLI or MSD-SET, IgG, monomeric antigen;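 further: BLI: antibodies captured on AHQ sensors, 100 nM antigen association 5 min, dissociation 5 min, 1:1 fit. MSD-SET: antigen fixed at 50 pM, antibody titrated, quadratic fit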
T3 construct: also called hCD33-His
Protocol: (§1) The binding affinity of each anti-CD33 antibody was determined by measuring their KD by ForteBio or MSD-SET. […] Briefly, ForteBio affinity measurements were performed by loading IgGs on-line onto AHQ sensors. Sensors were equilibrated off-line in assay buffer for 30 min and then monitored on-line for 60 seconds for baseline establishment. Sensors with loaded IgGs were exposed to 100 nM antigen for 5 minutes, then transferred to assay buffer for 5 min for off-rate measurement. Kinetics were analyzed using the 1:1 binding model.
(§2) Solution equilibrium titrations (SET) were performed in PBS+0.1% IgG-Free BSA (PBSF) with antigen held constant at 50 pM and incubated with 3-to 5-fold serial dilutions of antibody starting at 10 nM. Antibodies (20 nM in PBS) were coated onto standard bind MSD-ECL plates overnight at 4° C. or at room temperature for 30 min. Plates were then blocked for 30 min with shaking at 700 rpm, followed by three washes with wash buffer (PBSF+0.05% Tween 20). SET samples were applied and incubated on the plates for 150s with shaking at 700 rpm followed by one wash. Antigen captured on a plate was detected with 250 ng/mL sulfotag-labeled streptavidin in PBSF by incubation on the plate for 3 min. The plates were washed three times with wash buffer and then read on the MSD Sector Imager 2400 instrument using 1× Read Buffer T with surfactant. The percent free antigen was plotted as a function of titrated antibody in Prism and fit to a quadratic equation to extract the KD. To improve throughput, liquid handling robots were used throughout MSD-SET experiments, including SET sample preparation.

human CD33 [4] = target: T2, human CD33; test: cell-based or functional assay
[5] = target: T1, human CD33 Fc fusion protein; test: ForteBio BLI or MSD-SET, IgG, avid;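 further: Anti-CD33 IgG affinity by BLI, IgG captured on AHQ sensors with antigen in solution and a one-to-one kinetic fit, or by MSD solution equilibrium titration with quadratic fit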
Protocol: as §1, §2

[6] = target: T4, mouse CD33 Fc fusion protein (mouse, UniProt Q63994 18-240, limits assumed); test: ForteBio BLI or MSD-SET
T4 construct: also called mCD33-Fc
T4 sequence: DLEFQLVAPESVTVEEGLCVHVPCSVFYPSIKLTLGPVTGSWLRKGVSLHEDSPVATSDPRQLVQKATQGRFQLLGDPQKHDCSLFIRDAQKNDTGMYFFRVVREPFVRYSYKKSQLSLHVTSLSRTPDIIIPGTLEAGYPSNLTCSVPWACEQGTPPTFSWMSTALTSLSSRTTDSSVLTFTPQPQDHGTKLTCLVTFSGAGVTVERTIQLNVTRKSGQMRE

[7] = target: T1, human CD33 Fc fusion protein; test: RBC adhesion to plate-bound CD33-Fc; antibody 0.5 ug/ml;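 further: Plate-coated CD33-Fc preincubated 1 h with antibody, then red blood cells added for 1 h at room temperature, adherent cells lysed and quantified via peroxidase activity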
human CD33 [8] = target: T2, human CD33; test: flow cytometry, human primary dendritic cells;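 further: binding of anti-CD33 antibodies (10 ug/ml, 1 h on ice) to human primary dendritic cells, detected with a PE-labelled secondary antibody, reported as flow cytometry MFI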
human CD33 [9] = target: T2, human CD33; test: flow cytometry, human primary macrophages;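 further: binding of CD33 antibodies at 10 µg/ml to human primary macrophages, 1 h on ice, detected with PE-labelled secondary antibody by flow cytometry, reported as MFI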
human CD33 [10] = target: T2, human CD33; test: flow cytometry, human primary T cells;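 further: binding of anti-CD33 antibodies at 10 ug/ml to human primary T cells, 1 h on ice, detected with PE-labelled secondary antibody, read as flow cytometry MFI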

T1 sequence (P20138 18-259 limits assumed): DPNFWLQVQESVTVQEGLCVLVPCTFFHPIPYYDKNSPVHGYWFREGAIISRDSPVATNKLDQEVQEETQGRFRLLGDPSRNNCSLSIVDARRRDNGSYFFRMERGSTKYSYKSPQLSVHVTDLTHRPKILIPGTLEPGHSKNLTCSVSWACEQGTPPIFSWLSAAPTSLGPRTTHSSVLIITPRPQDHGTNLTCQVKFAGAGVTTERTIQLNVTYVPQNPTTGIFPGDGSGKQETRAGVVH
T3 sequence (P20138 18-259 limits assumed): as above
T2 sequence (P20138 18-364): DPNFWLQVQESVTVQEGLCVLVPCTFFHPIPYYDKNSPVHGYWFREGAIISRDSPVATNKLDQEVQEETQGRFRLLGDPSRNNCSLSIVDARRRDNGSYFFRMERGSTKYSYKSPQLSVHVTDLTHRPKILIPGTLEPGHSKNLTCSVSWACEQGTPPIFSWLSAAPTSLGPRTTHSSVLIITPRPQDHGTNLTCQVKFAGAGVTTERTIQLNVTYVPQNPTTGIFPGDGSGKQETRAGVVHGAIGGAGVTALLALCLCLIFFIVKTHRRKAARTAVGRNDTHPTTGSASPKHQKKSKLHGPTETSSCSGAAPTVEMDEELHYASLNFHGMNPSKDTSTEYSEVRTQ

Row | Binder | Percent RBC Binding to CD33 [1] | Monocyte MFI (human CD33 [2]) | Kd [3] | Percent CD33 Surface Expression, DC % CD33 (human CD33 [4]) | Percent CD33 Surface Expression, Monocyte % CD33 (human CD33 [4]) | Kd [5] | binding result [6] | Percent RBC Binding to CD33 [7] | DC MFI (human CD33 [8]) | Macrophage MFI (human CD33 [9]) | T cell MFI (human CD33 [10]) | Percent CD33 Surface Expression, Macrophage % CD33 (human CD33 [4])
1 | B1 | 67% | 686 | 4.63 nM | 88.7% | 85.9% | 1.04 nM | no binding (tested: 100 nM) | 72.6% | 46 | 778 | 399 | –
2 | B2 | 77.7% | 698 | 11.1 nM | 84.2% | 87.6% | 2.15 nM | no binding (tested: 100 nM) | 61.4% | 43 | 493 | 263 | –
3 | B3 | 87.7% | 654 | 13.5 nM | 85.5% | 92.4% | 3.01 nM | no binding (tested: 100 nM) | 85.5% | 43 | 455 | 185 | –
4 | B4 | 83.5% | 815 | 11.2 nM | 83.1% | 91.1% | 2.28 nM | no binding (tested: 100 nM) | 45.7% | 43 | 654 | 228 | –
5 | B5 | 8.95% | 80 | 22.1 nM | 21.7% | 29.3% | 2.94 nM | no binding (tested: 100 nM) | 11.3% | 923 | 628 | 318 | 41.8%
6 | B6 | 103% | 532 | 62.6 nM | 75.9% | 90.4% | 7.39 nM | no binding (tested: 100 nM) | 96.8% | 55 | 313 | 95.8 | –
7 | B7 | 18.9% | 118 | 7.7 nM | 43.4% | 41.8% | 1.77 nM | no binding (tested: 100 nM) | 36.2% | 742 | 657 | 330 | 47.5%
8 | B8 | 108% | 87 | 3.29 nM | 66.9% | 96.5% | 1.01 nM | no binding (tested: 100 nM) | 122% | 814 | 626 | 52.5 | 97%
9 | B9 | 9.5% | 971 | 7.04 nM | 28.4% | 36.1% | 1.93 nM | no binding (tested: 100 nM) | 29.4% | 172 | 1260 | 246 | 47.5%
10 | B10 | 10.1% | 115 | 30.9 nM | 59.1% | 71.9% | 4.61 nM | no binding (tested: 100 nM) | 31.6% | 526 | 752 | 561 | –
